# B1: SMAD3 wild type, overexpressed from pCMV5b-SMAD3 [not stated] / SMAD Anchor for Receptor Activation (SARA) [human (endogenous in HT-1080)] (parent complex)
# chain 1: MSSILPFTPPIVKRLLGWKKGEQNGQEEKWCEKAVKSLVKKLKKTGQLDELEKAITTQNVNTKCITIPRSLDGRLQVSHRKGLPHVIYCRLWRWPDLHSHHELRAMELCEFAFNMKKDEVCVNPYHYQRVETPVLPPVLVPRHTEIPAEFPPLDDYSHSIPENTNFPAGIEPQSNIPETPPPGYLSEDGETSDHQMNHSMDAGSPNLSPNPMSPAHNNLDLQPVTYCEPAFWCSISYYELNQRVGETFHASQPSMTVDGFTDPSNSERFCLGLLSNVNRNAAVELTRRHIGRGVRLYYIGGEVFAECLSDSAIFVQSPNCNQRYGWHPATVCKIPPGCNLKIFNNQEFAALLAQSVNQGFEAVYQLTRMCTIRMSFVKGWGAEYRRQTVTSTPCWIELHLNGPLQWLDKVLTQMGSPSIRCSSVS
# chain 2: MENYFQAEAYNLDKVLDEFEQNEDETVSSTLLDTKWNKILDPPSHRLSFNPTLASVNESAVSNESQPQLKVFSLAHSAPLTTEEEDHCANGQDCNLNPEIATMWIDENAVAEDQLIKRNYSWDDQCSAVEVGEKKCGNLACLPDEKNVLVVAVMHNCDKRTLQNDLQDCNNYNSQSLMDAFSCSLDNENRQTDQFSFSINESTEKDMNSEKQMDPLNRPKTEGRSVNHLCPTSSDSLASVCSPSQLKDDGSIGRDPSMSAITSLTVDSVISSQGTDGCPAVKKQENYIPDEDLTGKISSPRTDLGSPNSFSHMSEGILMKKEPAEESTTEESLRSGLPLLLKPDMPNGSGRNNDCERCSDCLVPNEVRADENEGYEHEETLGTTEFLNMTEHFSESQDMTNWKLTKLNEMNDSQVNEEKEKFLQISQPEDTNGDSGGQCVGLADAGLDLKGTCISESEECDFSTVIDTPAANYLSNGCDSYGMQDPGVSFVPKTLPSKEDSVTEEKEIEESKSECYSNIYEQRGNEATEGSGLLLNSTGDLMKKNYLHNFCSQVPSVLGQSSPKVVASLPSISVPFGGARPKQPSNLKLQIPKPLSDHLQNDFPANSGNNTKNKNDILGKAKLGENSATNVCSPSLGNISNVDTNGEHLESYEAEISTRPCLALAPDSPDNDLRAGQFGISARKPFTTLGEVAPVWVPDSQAPNCMKCEARFTFTKRRHHCRACGKVFCASCCSLKCKLLYMDRKEARVCVICHSVLMNAQAWENMMSASSQSPNPNNPAEYCSTIPPLQQAQASGALSSPPPTVMVPVGVLKHPGAEVAQPREQRRVWFADGILPNGEVADAAKLTMNGTSSAGTLAVSHDPVKPVTTSPLPAETDICLFSGSITQVGSPVGSAMNLIPEDGLPPILISTGVKGDYAVEEKPSQISVMQQLEDGGPDPLVFVLNANLLSMVKIVNYVNRKCWCFTTKGMHAVGQSEIVILLQCLPDEKCLPKDIFNHFVQLYRDALAGNVVSNLGHSFFSQSFLGSKEHGGFLYVTSTYQSLQDLVLPTPPYLFGILIQKWETPWAKVFPIRLMLRLGAEYRLYPCPLFSVRFRKPLFGETGHTIMNLLADFRNYQYTLPVVQGLVVDMEVRKTSIKIPSNRYNEMMKAMNKSNEHVLAGGACFNEKADSHLVCVQNDDGNYQTQAISIHNQPRKVTGASFFVFSGALKSSSGYLAKSSIVEDGVMVQITAENMDSLRQALREMKDFTITCGKADAEEPQEHIHIQWVDDDKNVSKGVVSPIDGKSMETITNVKIFHGSEYKANGKVIRWTEVFFLENDDQHNCLSDPADHSRLTEHVAKAFCLALCPHLKLLKEDGMTKLGLRVTLDSDQVGYQAGSNGQPLPSQYMNDLDSALVPVIHGGACQLSEGPVVMELIFYILENIV
# B2: SMAD2 wild type, overexpressed from pCMV5b-SMAD2 [not stated] / SMAD Anchor for Receptor Activation (SARA) [human (endogenous in HT-1080)] (parent complex)
# chain 1: MSSILPFTPPVVKRLLGWKKSAGGSGGAGGGEQNGQEEKWCEKAVKSLVKKLKKTGRLDELEKAITTQNCNTKCVTIPSTCSEIWGLSTPNTIDQWDTTGLYSFSEQTRSLDGRLQVSHRKGLPHVIYCRLWRWPDLHSHHELKAIENCEYAFNLKKDEVCVNPYHYQRVETPVLPPVLVPRHTEILTELPPLDDYTHSIPENTNFPAGIEPQSNYIPETPPPGYISEDGETSDQQLNQSMDTGSPAELSPTTLSPVNHSLDLQPVTYSEPAFWCSIAYYELNQRVGETFHASQPSLTVDGFTDPSNSERFCLGLLSNVNRNATVEMTRRHIGRGVRLYYIGGEVFAECLSDSAIFVQSPNCNQRYGWHPATVCKIPPGCNLKIFNNQEFAALLAQSVNQGFEAVYQLTRMCTIRMSFVKGWGAEYRRQTVTSTPCWIELHLNGPLQWLDKVLTQMGSPSVRCSSMS
# chain 2: B1 chain 2
# Variants of: B1
# Assay: co-immunoprecipitation (IP: SMAD3, blot SARA) with densitometry; HT-1080 cells transiently transfected; ratio printed relative to the pCMV5b empty-vector lane = 1; parent: 0.6
row,screen value,Variant
1,0.2,chain 1 N339S

# Variants of: B2
# Assay: co-immunoprecipitation (IP: SMAD2, blot SARA) with densitometry; HT-1080 cells transiently transfected; ratio printed relative to the pCMV5b empty-vector lane = 1; parent: 1.2
row,screen value,Variant
1,0.5,chain 1 N381S

# Source: paper PMC9179584 (2022)
